Assay results published in patent publication US20210260212A1 (MAGENTA THERAPEUTICS, published 2021).

Molecular target: T1, human CD2 on the surface of cells (MOLT-4 human T lymphoblast cells); primary human T-cells; primary human NK … (human, UniProt P06729 25-351)
T1 sequence: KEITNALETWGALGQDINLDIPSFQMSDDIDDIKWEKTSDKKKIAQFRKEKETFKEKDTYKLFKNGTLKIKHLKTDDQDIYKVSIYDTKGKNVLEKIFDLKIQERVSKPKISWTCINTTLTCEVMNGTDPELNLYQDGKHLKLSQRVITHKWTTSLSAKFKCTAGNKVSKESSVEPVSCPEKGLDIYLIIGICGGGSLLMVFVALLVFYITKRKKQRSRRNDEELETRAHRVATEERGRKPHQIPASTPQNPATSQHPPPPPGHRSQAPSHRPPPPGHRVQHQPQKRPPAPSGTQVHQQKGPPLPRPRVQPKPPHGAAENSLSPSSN
Test: cell-based or functional assay

B1: anti-CD2-amanitin ADC: RPA 2.10 conjugated to amanitin with a cleavable linker, interchain, average drug-to-antibody ratio of 6 (other)
heavy: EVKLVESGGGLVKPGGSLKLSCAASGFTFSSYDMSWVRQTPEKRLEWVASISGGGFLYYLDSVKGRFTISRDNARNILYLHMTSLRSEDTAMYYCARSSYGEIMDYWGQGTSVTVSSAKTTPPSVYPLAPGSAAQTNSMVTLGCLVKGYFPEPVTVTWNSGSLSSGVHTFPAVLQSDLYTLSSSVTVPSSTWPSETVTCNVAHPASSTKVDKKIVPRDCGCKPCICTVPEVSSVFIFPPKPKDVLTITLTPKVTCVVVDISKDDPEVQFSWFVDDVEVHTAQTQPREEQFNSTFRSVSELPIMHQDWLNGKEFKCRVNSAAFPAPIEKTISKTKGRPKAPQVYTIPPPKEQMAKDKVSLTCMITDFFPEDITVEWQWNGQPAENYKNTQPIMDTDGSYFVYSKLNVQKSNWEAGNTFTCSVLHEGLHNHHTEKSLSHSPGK
light: DILLTQSPAILSVSPGERVSFSCRASQRIGTSIHWYQQRTTGSPRLLIKYASESISGIPSRFSGSGSGTDFTLSINSVESEDVADYYCQQSHGWPFTFGGGTKLEIERADAAPTVSIFPPSSEQLTSGGASVVCFLNNFYPKDINVKWKIDGSERQNGVLNSWTDQDSKDSTYSMSSTLTLTKDEYERHNSYTCEATHKTSTSPIVKSFNRNEC
Q: Which “viability of primary human NK cells after 4 days (CellTiter-Glo), in vitro NK-cell killing assay, IC50” value does the source give for B1 here?
A: 5.2 pM
